In US20250043017A1 (Regeneron, published 2025):

Columns and labels:
human 4-1BB on cells [1] = target: T1, human 4-1BB on cells (human, UniProt Q07011 24-255); assay: cell-based or functional assay
human 4-1BB on cells [2] = target: T1, human 4-1BB on cells; assay: cell-based or functional assay; remark: listed apart in the source
human 4-1BB on cells [3] = target: T1, human 4-1BB on cells; assay: flow cytometry, Jurkat/NFkB-Luc/h41BB cells
Description: Binding was detected by using a labeled secondary antibody and measuring fluorescence on a flow cytometer.
Assay set up: OVCAR-3+/−PD-L1 cells were lifted with trypsin, washed and resuspended in stain buffer (2% FBS in PBS). OVCAR-3 and Jurkat/NFkB-Luc/h41BB cells were counted and added to wells at 200,000 cells/well. Cells, in wells of 96-well round bottom plates, were pelleted by centrifugation and resuspended in 150 ul stain buffer (PBS containing 2% FBS). Plates were once again centrifuged and subsequently 100 ul of stain buffer alone or stain buffer containing antibody, titrated from 200 nM to 12 pM in a 9-point 1:4 dose titration were added to cells. Cells and antibodies were incubated for 30 min on ice and then washed in stain buffer. Cells were resuspended in 2 μg/ml allophycocyanin (APC) conjugated goat-anti human secondary antibody. A secondary antibody alone control was included. Cells and secondary were incubated for 30 min on ice and then washed in stain buffer. After a subsequent wash with PBS (containing no FBS), cells were resuspended in viability dye (reconstituted in DMSO according to the manufacturer's protocol and diluted 1:1000 in PBS) and incubated for 20 min on ice. They were then washed with stain buffer and resuspended in 2% PFA for 30 min at 4 C. After washing they were filtered and analyzed by flow cytometry. EC₅₀ values of the antibodies were determined from a 4 parameter logistic equation over a 9-point dose response curve (including secondary only control) using GraphPad Prism software.

[4] = target: T2, human 4-1BB expressed with a C-terminal myc-myc-hexahistidine tag (h4-1BB.mmH) (human); assay: blocking ELISA, 0.25 nM h4-1BB-mmh binding to coated 6His-Flag-h4-1BBL
T2 construct: also called hCD137 (4-1BB) mmH
T2 sequence (chain, as listed by the source limits assumed): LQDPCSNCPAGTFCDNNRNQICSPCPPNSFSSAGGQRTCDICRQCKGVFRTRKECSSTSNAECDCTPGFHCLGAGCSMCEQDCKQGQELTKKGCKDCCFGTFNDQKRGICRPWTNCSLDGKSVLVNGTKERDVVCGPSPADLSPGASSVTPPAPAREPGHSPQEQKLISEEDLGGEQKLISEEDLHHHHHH
Description: The 4-1BB blocking assay was performed similarly to the PD-L1 blocking assay. 6His-Flag-h4-1BBL protein ([…] in PBS) was coated onto a 96-well microtiter plate overnight at 4 °C. […] The plates were developed using TMB substrate solution (BD Biosciences) and the absorbance at 450 nm was measured on a SpectraMax I3x plate reader.
Binding data were analyzed using a sigmoidal (four-parameter logistic) dose-response model with GraphPad Prism™ software. […] The percent blocking of tested antibodies at the highest tested concentration of 100 nM was calculated based on the formula shown below: […]

[5] = target: T2, human 4-1BB expressed with a C-terminal …; assay: SPR Biacore, 25 C, antibody captured via anti-hFc, h4-1BB.mmH as analyte
Description: The CM5 Biacore sensor surface was derivatized by amine coupling with a monoclonal mouse anti-human Fc antibody. All Biacore binding studies were performed in a buffer composed of 0.01M HEPES pH 7.4, 0.15M NaCl, 3 mM EDTA, 0.05% v/v Surfactant P20 (HBS-EP running buffer). […] Antibody-reagent association was monitored for 5 minutes while dissociation in HBS-EP running buffer was monitored for 10 minutes. At the end of each cycle, the antibody capture surface was regenerated using a 10 sec injection of 20 mM phosphoric acid. All binding kinetics experiments were performed at 25° C.
Data analysis: The specific SPR-Biacore sensorgrams were obtained by a double referencing procedure. The double referencing was performed by first subtracting the signal of each injection over a reference surface (anti-hFc or anti-mFc) from the signal over the experimental surface (anti-hFc-captured anti-PD-L1×4-1BB antibodies) thereby removing contributions from refractive index changes. In addition, running buffer injections were performed to allow subtraction of the signal changes resulting from the dissociation of captured antibodies or antigens from the coupled anti-hFc or anti-mFc surface. Kinetic association (kₐ) and dissociation (kd) rate constants were determined by fitting the real-time sensorgrams to a 1:1 binding model using Scrubber v2.0c curve fitting software. Binding dissociation equilibrium constants (KD) and dissociative half-lives (t½) were calculated from the kinetic rate constants as: […]

T1 sequence (Q07011 24-255): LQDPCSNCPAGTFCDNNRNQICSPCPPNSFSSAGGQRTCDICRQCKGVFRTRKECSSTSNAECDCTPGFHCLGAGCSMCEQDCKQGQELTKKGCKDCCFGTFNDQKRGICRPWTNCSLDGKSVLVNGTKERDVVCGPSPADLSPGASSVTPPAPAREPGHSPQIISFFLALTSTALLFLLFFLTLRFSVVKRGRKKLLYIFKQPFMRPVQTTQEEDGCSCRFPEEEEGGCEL

Binder | NFkB-luciferase EC50, Jurkat/NFkB-Luc/h41BB + HEK293/hCD20/hPSMA/hPD-L1 (human 4-1BB on cells [1]) | NFkB-luciferase MAX (RLU), Jurkat/NFkB-Luc/h41BB + HEK293/hCD20/hPSMA (human 4-1BB on cells [1]) | NFkB-luciferase MAX (RLU), Jurkat/NFkB-Luc/h41BB + HEK293/hCD20/hPSMA/hPD-L1 (human 4-1BB on cells [1]) | IL2 release EC50, human CD3+ T cells + HEK293/hCD20/hPSMA/hPD-L1 + CD20xCD3 (human 4-1BB on cells [2]) | IL2 release MAX, human CD3+ T cells + HEK293/hCD20/hPSMA + CD20xCD3 (human 4-1BB on cells [2]) | IL2 release MAX, human CD3+ T cells + HEK293/hCD20/hPSMA, no CD20xCD3 (human 4-1BB on cells [2]) | IL2 release MAX, human CD3+ T cells + HEK293/hCD20/hPSMA/hPD-L1 + CD20xCD3 (human 4-1BB on cells [2]) | IL2 release MAX, human CD3+ T cells + HEK293/hCD20/hPSMA/hPD-L1, no CD20xCD3 (human 4-1BB on cells [2]) | Fold change (max MFI over secondary antibody alone) (human 4-1BB on cells [3]) | Max [gMFI] (human 4-1BB on cells [3]) | % Blocking at 100 nM mAb [4] | 270 nM h4-1BB-mmH Bind (RU) [5] | Kd [5] | koff [5] | kon [5] | t½ [5] | NFkB-luciferase EC50, Jurkat/NFkB-Luc/h41BB + HEK293/hCD20/hPSMA (human 4-1BB on cells [1]) | EC50 (human 4-1BB on cells [3])
REGN6188 (bispecific antibody, human IgG4 S228P, kappa, common light chain 1-39; also called R6188; PD-L1x4-1BB REGN6188) heavy 1: EVQLVESGGGLVQPGRSLRLSCAASGFTFDDYALHWVRQAPGKGLEWVSGISWTGGTIDYADSVKGRFTISRDNAKNSLYLQMSSLRTEDTAIYYCTRDIRGNWKYGGWFDPWGQGTLVTVSSASTKGPSVFPLAPCSRSTSESTAALGCLVKDYFPEPVTVSWNSGALTSGVHTFPAVLQSSGLYSLSSVVTVPSSSLGTKTYTCNVDHKPSNTKVDKRVESKYGPPCPPCPAPPVAGPSVFLFPPKPKDTLMISRTPEVTCVVVDVSQEDPEVQFNWYVDGVEVHNAKTKPREEQFNSTYRVVSVLTVLHQDWLNGKEYKCKVSNKGLPSSIEKTISKAKGQPREPQVYTLPPSQEEMTKNQVSLTCLVKGFYPSDIAVEWESNGQPENNYKTTPPVLDSDGSFFLYSRLTVDKSRWQEGNVFSCSVMHEALHNHYTQKSLSLSLGK heavy 2: EVQLVESGGGLVQPGGSLRLSCVASGFTFSSYEMNWVRQAPGKGLEWVSYISNSGTTIYYAGSVKGRFTISRDNAKKSLYLHMNSLRAEDTAVYYCAREGTIFGTVHYYFALDVWGQGTTVTVSSASTKGPSVFPLAPCSRSTSESTAALGCLVKDYFPEPVTVSWNSGALTSGVHTFPAVLQSSGLYSLSSVVTVPSSSLGTKTYTCNVDHKPSNTKVDKRVESKYGPPCPPCPAPPVAGPSVFLFPPKPKDTLMISRTPEVTCVVVDVSQEDPEVQFNWYVDGVEVHNAKTKPREEQFNSTYRVVSVLTVLHQDWLNGKEYKCKVSNKGLPSSIEKTISKAKGQPREPQVYTLPPSQEEMTKNQVSLTCLVKGFYPSDIAVEWESNGQPENNYKTTPPVLDSDGSFFLYSRLTVDKSRWQEGNVFSCSVMHEALHNRFTQKSLSLSPGK light: not shown | 0.558 nM | 35900 RLU | 562000 RLU | 0.926 nM | 7.2 pg/mL | 5.1 pg/mL | 45.8 pg/mL | 5.1 pg/mL | 22.9 fold | 52000 gMFI | 33% | 25.4 RU | 128 nM | 0.0948 s⁻¹ | 742000 M⁻¹ s⁻¹ | 6 s |  | 
mAb25894 (antibody, V domains shown, bivalent parental anti-4-1BB antibody of REGN6188; also called 25894P2; parental bivalent 4-1BB antibody) VH: EVQLVESGGGLVQPGGSLRLSCVASGFTFSSYEMNWVRQAPGKGLEWVSYISNSGTTIYYAGSVKGRFTISRDNAKKSLYLHMNSLRAEDTAVYYCAREGTIFGTVHYYFALDVWGQGTTVTVSS VL: not shown |  | 34300 RLU | 29800 RLU |  | 9.6 pg/mL | 1 pg/mL | 7.8 pg/mL | 1 pg/mL | 44.7 fold | 100000 gMFI | 61% | 35.1 RU | 170 nM | 0.0902 s⁻¹ | 530000 M⁻¹ s⁻¹ | 6 s | 14.8 nM | 
mAb25898 (antibody, V domains shown, bivalent parental anti-4-1BB antibody of REGN6189; also called 25898P2; parental bivalent 4-1BB antibody) VH: QVQLVESGGDVVQPGRSLRLSCTASGFTFSSFGMHWVRQAPGKGLEWVTFLSYDGSYKYYADSVKGRFTISRDNSKNTLYLQMNSLRAEDTAIFYCARDWLDYWGQGTLVTVSS VL: not shown |  | 19000 RLU | 19000 RLU |  | 8.4 pg/mL | 3.3 pg/mL | 5.1 pg/mL | 3.3 pg/mL | 53.8 fold | 120000 gMFI | 70% | 63.8 RU | 94.5 nM | 0.0282 s⁻¹ | 298000 M⁻¹ s⁻¹ | 24 s |  | 0.0406 nM
mAb25907 (antibody, V domains shown, bivalent parental anti-4-1BB antibody of REGN6190; also called 25907P2) VH: EVQLVESGGGLVQPGGSLRLSCEASGFTFSSYEMNWVRQAPGKGLEWISHISSSGSSIYYADSVQGRFTISRDKAKNSLYLQMNSLRAEDTAVYYCTREGFEYGSSSGLKYYYYGLDVWGQGTTVTVSS VL: not shown |  | 18500 RLU | 18100 RLU |  | 9.3 pg/mL | 1.6 pg/mL | 4.6 pg/mL | 1.6 pg/mL | 60.5 fold | 140000 gMFI | 87% | 67.5 RU | 34.2 nM | 0.0196 s⁻¹ | 572000 M⁻¹ s⁻¹ | 36 s |  | 0.00508 nM
REGN6189 (bispecific antibody, human IgG4 S228P, kappa, common light chain 1-39; also called R6189; PD-L1x4-1BB REGN6189) heavy 1: EVQLVESGGGLVQPGRSLRLSCAASGFTFDDYALHWVRQAPGKGLEWVSGISWTGGTIDYADSVKGRFTISRDNAKNSLYLQMSSLRTEDTAIYYCTRDIRGNWKYGGWFDPWGQGTLVTVSSASTKGPSVFPLAPCSRSTSESTAALGCLVKDYFPEPVTVSWNSGALTSGVHTFPAVLQSSGLYSLSSVVTVPSSSLGTKTYTCNVDHKPSNTKVDKRVESKYGPPCPPCPAPPVAGPSVFLFPPKPKDTLMISRTPEVTCVVVDVSQEDPEVQFNWYVDGVEVHNAKTKPREEQFNSTYRVVSVLTVLHQDWLNGKEYKCKVSNKGLPSSIEKTISKAKGQPREPQVYTLPPSQEEMTKNQVSLTCLVKGFYPSDIAVEWESNGQPENNYKTTPPVLDSDGSFFLYSRLTVDKSRWQEGNVFSCSVMHEALHNHYTQKSLSLSLGK heavy 2: QVQLVESGGDVVQPGRSLRLSCTASGFTFSSFGMHWVRQAPGKGLEWVTFLSYDGSYKYYADSVKGRFTISRDNSKNTLYLQMNSLRAEDTAIFYCARDWLDYWGQGTLVTVSSASTKGPSVFPLAPCSRSTSESTAALGCLVKDYFPEPVTVSWNSGALTSGVHTFPAVLQSSGLYSLSSVVTVPSSSLGTKTYTCNVDHKPSNTKVDKRVESKYGPPCPPCPAPPVAGPSVFLFPPKPKDTLMISRTPEVTCVVVDVSQEDPEVQFNWYVDGVEVHNAKTKPREEQFNSTYRVVSVLTVLHQDWLNGKEYKCKVSNKGLPSSIEKTISKAKGQPREPQVYTLPPSQEEMTKNQVSLTCLVKGFYPSDIAVEWESNGQPENNYKTTPPVLDSDGSFFLYSRLTVDKSRWQEGNVFSCSVMHEALHNRFTQKSLSLSPGK light: not shown | 7.03 nM | 175000 RLU | 1.18e+06 RLU | 1.09 nM | 8.7 pg/mL | 10.1 pg/mL | 83.1 pg/mL | 10.1 pg/mL | 23.8 fold | 54000 gMFI | 64% | 25.4 RU | 61.6 nM | 0.0315 s⁻¹ | 511000 M⁻¹ s⁻¹ | 24 s |  | 
